T1: SS-B (human, UniProt P05455 1-408)
T1 sequence (looked up): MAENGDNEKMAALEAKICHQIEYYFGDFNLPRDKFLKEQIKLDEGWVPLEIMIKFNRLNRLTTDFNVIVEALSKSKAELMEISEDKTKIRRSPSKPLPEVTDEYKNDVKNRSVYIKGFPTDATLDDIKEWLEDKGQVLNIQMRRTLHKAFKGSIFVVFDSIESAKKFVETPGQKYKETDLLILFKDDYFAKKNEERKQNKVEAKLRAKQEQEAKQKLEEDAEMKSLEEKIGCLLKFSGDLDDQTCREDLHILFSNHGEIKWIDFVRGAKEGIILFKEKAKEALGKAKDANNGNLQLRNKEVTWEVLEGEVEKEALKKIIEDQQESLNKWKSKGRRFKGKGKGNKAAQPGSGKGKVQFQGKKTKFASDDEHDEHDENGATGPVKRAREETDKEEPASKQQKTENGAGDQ

T2: Jo-1 (human, UniProt P12081 1-509)
T2 sequence (looked up): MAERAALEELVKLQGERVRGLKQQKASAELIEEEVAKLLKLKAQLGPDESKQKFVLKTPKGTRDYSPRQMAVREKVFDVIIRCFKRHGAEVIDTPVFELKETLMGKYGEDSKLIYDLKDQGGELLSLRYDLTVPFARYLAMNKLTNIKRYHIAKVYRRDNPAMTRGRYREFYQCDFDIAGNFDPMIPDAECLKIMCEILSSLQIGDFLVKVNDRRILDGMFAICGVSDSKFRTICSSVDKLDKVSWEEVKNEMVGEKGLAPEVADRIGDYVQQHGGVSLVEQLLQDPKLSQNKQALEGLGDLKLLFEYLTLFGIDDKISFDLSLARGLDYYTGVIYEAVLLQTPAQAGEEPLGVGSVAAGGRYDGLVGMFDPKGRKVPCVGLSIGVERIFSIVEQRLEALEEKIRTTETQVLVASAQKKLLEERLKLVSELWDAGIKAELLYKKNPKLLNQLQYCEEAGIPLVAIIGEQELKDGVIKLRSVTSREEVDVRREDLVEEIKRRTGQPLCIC

T3: Scl-70 (human, UniProt P11387 1-765)
T3 sequence (looked up): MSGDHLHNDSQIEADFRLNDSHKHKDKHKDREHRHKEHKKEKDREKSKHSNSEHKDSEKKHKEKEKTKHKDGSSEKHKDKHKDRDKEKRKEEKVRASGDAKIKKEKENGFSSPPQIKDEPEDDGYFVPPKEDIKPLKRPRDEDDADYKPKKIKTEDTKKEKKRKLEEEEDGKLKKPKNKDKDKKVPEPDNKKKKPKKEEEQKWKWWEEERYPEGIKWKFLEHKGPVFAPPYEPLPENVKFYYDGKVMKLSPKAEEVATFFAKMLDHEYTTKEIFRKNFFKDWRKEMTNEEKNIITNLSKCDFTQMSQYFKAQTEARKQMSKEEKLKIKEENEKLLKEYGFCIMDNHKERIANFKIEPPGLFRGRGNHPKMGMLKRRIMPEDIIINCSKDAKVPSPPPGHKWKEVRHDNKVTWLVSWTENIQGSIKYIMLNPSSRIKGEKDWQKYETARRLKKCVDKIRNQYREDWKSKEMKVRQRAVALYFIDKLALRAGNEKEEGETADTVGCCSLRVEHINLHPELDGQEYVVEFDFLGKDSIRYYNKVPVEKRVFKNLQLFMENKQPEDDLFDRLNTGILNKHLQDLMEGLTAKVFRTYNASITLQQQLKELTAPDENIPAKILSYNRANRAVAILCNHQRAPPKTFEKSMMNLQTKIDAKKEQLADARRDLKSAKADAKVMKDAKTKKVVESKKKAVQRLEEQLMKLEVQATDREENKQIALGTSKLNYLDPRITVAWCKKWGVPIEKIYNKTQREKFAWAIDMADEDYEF

T4: CenpB (human, UniProt P07199 1-599)
T4 sequence (looked up): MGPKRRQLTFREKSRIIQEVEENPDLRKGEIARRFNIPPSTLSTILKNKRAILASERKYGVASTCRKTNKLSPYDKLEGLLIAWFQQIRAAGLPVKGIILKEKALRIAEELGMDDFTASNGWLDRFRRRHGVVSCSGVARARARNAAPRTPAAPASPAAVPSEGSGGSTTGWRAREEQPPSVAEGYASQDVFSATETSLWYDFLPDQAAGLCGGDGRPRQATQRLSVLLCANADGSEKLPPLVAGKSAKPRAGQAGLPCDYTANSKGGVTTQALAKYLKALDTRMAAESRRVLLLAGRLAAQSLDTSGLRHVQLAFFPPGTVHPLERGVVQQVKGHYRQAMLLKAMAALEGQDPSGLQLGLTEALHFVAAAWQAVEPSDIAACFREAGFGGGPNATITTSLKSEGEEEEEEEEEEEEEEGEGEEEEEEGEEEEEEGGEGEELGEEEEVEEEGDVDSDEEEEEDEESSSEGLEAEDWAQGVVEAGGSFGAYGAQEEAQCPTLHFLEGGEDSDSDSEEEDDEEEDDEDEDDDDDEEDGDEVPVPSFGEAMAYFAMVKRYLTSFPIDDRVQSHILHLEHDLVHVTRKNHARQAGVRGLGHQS

B1: MEL-1872 (antibody)
VH: KVQLRESGPSLVKPSQTLSLTCTASGFSLSDKAVGWVRQAPGQPLEWLGTIDTTGNAVYNPGLKSRLSITKDNSKSQVSLSLSSVTTEDSATYHCSTVHQKTRRSCPSDYSFICDCEGTGSHCCRASNCPYYCNYGRDRMCTGRSNIHEWHVDAWGQGLLVTVSS
VL: QAVLTQPSSVSGSLGQRVSTTCSGSSSNVGNGYVSWYQLIPGSAPRTLIYGDTSRASGVPDRFSGSRSGNTVTLTISSLQAEDEADYFCASAEDGSSNAVFGRGTTLTV
notes: also called H 1872; BrNAb MEL-1872
B2: MEL-1842 (antibody)
VH: KVQLQESGPSLVKPSQTLSLTCTASGFSLSDKAVGWVRQAPGQALEWLGSIDTGGNADYNPGLKSRLSITKDNAKSQVSLSVSSVTTEGSATYYCSTVHQKTLRSCPSDYPYICDCEDTGSHCCRATNCPYYCNHGRDRMCTGRTYTYEWHVEAWGQGLLVTVSS
VL: QAVLTQPSSVSGSLGQRVSTTCSGSSSNVGNGYVSWYQLIPGSAPRTLIYGDTSRASGVPDRFSGSRSGNTVTLTISSLQAEDEADYFCASAEDGSSNAVFGRGTTLTV
notes: also called H 1842; BrNAb MEL-1842
B3: MEL-2129 (antibody)
VH: KVQLRESGPSLVKPSQTLSLTCTASGFSLSDKAVGWVRQAPGKALEWLGSIDTGGNAGYNPGLKSRLSITKGNSKSQVSLSVSSVTTEDSATYYCSTVHQKTRRSCPVDYYYSCDCEGSGSHCCSASNCPYYCKYGRDRVCTDKHTYSYEWYVDAWGQGLLVTVSS
VL: QAVLTQPSSVSGSLGQRVSTTCSGSSSNVGNGYVSWYQLIPGSAPRTLIYGDTSRASGVPDRFSGSRSGNTVTLTISSLQAEDEADYFCASAEDGSSNAVFGRGTTLTV
notes: also called BrNAb MEL-2129

What was measured:
[1] = molecular target: AD8 WT Env (gp160, from lysed pseudovirions / on pseudovirus) (HIV-1 AD8, clade B); assay: cell-based or functional assay
SS-B [2] = molecular target: T1, SS-B; assay: single autoantigen ELISA (AESKULISA ANA-8Pro), FIG. 9A; antibody printed as '1879'
Jo-1 [3] = molecular target: T2, Jo-1; assay: as above
Scl-70 [4] = molecular target: T3, Scl-70; assay: as above
CenpB = molecular target: T4, CenpB; assay: as above
monomeric AD8 gp120 = molecular target: T5, monomeric AD8 gp120 (HIV-1 AD8, clade B); assay: direct ELISA, plates coated with 1 µg/ml Env (FIG. 6C)
T5 construct: also called monomeric gp120; monomeric gp120 form of Env

SS-B [5] = molecular target: T1, SS-B; assay: single autoantigen ELISA (AESKULISA ANA-8Pro), FIG. 9A
Jo-1 [6] = molecular target: T2, Jo-1; assay: as above
Scl-70 [7] = molecular target: T3, Scl-70; assay: as above

Binder	IC50 (read off the curve); axis Neutralisation (%), panel AD8 [1]	binding result (SS-B [2])	binding result (Jo-1 [3])	binding result (Scl-70 [4])	binding result (CenpB)	binding result (monomeric AD8 gp120)	binding result (SS-B [5])	binding result (Jo-1 [6])	binding result (Scl-70 [7])
B1	~7 ng/mL	no binding (tested: 100 µg/ml)	no binding (tested: 100 µg/ml)	no binding (tested: 100 µg/ml)	no binding (tested: 100 µg/ml)				
B2						binds	no binding (tested: 100 µg/ml)	no binding (tested: 100 µg/ml)	no binding (tested: 100 µg/ml)
B3							no binding (tested: 100 µg/ml)	no binding (tested: 100 µg/ml)	no binding (tested: 100 µg/ml)

Reference: US20230272048A1 (UNIVERSITY OF MELBOURNE, published 2023)
